Reference: patent US20040091995A1

Molecular target: human carcinoembryonic antigen (CEA) on MC-38-CEA-2 cells (human) (UniProt P06731)
Assay: FACS analysis of MC-38-CEA-2 tumor cells

Chain of UniProt P06731 (P06731 35-702): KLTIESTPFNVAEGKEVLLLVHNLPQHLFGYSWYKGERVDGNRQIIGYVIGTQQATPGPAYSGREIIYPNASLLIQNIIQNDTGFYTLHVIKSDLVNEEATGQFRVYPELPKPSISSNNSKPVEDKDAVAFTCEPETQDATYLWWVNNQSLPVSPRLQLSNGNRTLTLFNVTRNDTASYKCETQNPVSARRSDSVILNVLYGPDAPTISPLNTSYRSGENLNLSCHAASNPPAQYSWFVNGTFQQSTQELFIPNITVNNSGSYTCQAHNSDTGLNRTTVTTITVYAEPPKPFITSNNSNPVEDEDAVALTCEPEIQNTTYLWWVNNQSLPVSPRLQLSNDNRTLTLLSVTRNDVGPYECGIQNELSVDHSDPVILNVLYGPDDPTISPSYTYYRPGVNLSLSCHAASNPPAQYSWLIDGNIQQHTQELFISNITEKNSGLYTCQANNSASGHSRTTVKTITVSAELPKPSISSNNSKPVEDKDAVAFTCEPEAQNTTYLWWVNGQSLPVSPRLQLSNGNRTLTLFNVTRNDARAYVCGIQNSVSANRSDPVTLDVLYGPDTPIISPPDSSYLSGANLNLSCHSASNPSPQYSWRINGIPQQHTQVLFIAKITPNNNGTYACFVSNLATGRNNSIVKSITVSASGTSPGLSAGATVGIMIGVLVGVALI

## murine IgG2a anti-CEA MAb, COL-1 (antibody)
  percent of cells positive (COL-1 binding) (% of the cells): > 85
